# According to publication doi:10.1101/2024.10.30.620894 (bioRxiv, 2024):
# What was measured:
# [1] = target: VLDLR(28-797)Δ(751-779)-C-tag (VLDLR ectodomain, VLDLR-ed) (human) (UniProt P98155); assay: ELISA
# SEC = target: the molecule itself; assay: SEC
Molecule,Kd [1] [nM],stoichiometry N (SEC)
receptor-associated protein (RAP) (from UniProt P30533 36-357) (natural protein),1.2,–
"wild-type clusterin (WT-Clu) (natural protein, human, N-glycans (six in the whole protein) | N-glycans (six in the whole protein)) chain 1: DQTVSDNELQEMSNQGSKYVNKEIQNAVNGVKQIKTLIEKTNEERKTLLSNLEEAKKKKEDALNETRESETKLKELPGVCNETMMALWEECKPCLKQTCMKFYARVCRSGSGLVGRQLEEFLNQSSPFYFWMNGDRIDSLLENDRQQTHMLDVMQDHFSRASSIIDELFQDRFFTREPQDTYHYLPFSLPHRRPHFFFPKSRIVR chain 2: SLMPFSPYEPLNFHAMFQPFLEMIHEAQQAMDIHFHSPAFQHPPTEFIREGDDDRTVCREIRHNSTGCLRMKDQCDKCREILSVDCSTNNPSQAKLRRELDESLQVAERLTRKYNELLKSYQWKMLNTSSLLEQLNEQFNWVSRLANLTQGEDQYYLRVTTVASHTSDSDVPSGVTEVVVKLFDSDPITVTVPVEVSRKNPKFMETVAEKALQEYRKKHREE",80,2
